# Source: patent US20050272633
# T1: IL-2 receptor common gamma chain (cγc), full length (1-369), P31785
# T1 chain: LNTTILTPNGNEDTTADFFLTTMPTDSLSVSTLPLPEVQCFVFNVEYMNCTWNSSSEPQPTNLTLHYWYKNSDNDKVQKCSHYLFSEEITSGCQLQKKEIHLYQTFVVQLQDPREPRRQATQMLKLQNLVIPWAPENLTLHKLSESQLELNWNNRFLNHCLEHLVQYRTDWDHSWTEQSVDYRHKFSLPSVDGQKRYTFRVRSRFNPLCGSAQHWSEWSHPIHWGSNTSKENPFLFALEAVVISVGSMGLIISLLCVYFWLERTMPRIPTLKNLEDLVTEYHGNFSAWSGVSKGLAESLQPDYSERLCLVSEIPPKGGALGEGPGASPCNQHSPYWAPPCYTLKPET
# B1: myc tagged NIK (pcS3MTNIK) (protein)
# chain: MAVMEMACPGAPGSAVGQQKELPKAKEKTPPLGKKQSSVYKLEAVEKSPVFCGKWEILNDVITKGTAKEGSEAGPAAISIIAQAECENSQEFSPTFSERIFIAGSKQYSQSESLDQIPNNVAHATEGKMARVCWKGKRRSKARKKRKKKSSKSLAHAGVALAKPLPRTPEQESCTIPVQEDESPLGAPYVRNTPQFTKPLKEPGLGQLCFKQLGEGLRPALPRSELHKLISPLQCLNHVWKLHHPQDGGPLPLPTHPFPYSRLPHPFPFHPLQPWKPHPLESFLGKLACVDSQKPLPDPHLSKLACVDSPKPLPGPHLEPSCLSRGAHEKFSVEEYLVHALQGSVSSGQAHSLTSLAKTWAARGSRSREPSPKTEDNEGVLLTEKLKPVDYEYREEVHWATHQLRLGRGSFGEVHRMEDKQTGFQCAVKKVRLEVFRAEELMACAGLTSPRIVPLYGAVREGPWVNIFMELLEGGSLGQLVKEQGCLPEDRALYYLGQALEGLEYLHSRRILHGDVKADNVLLSSDGSHAALCDFGHAVCLQPDGLGKSLLTGDYIPGTETHMAPEVVLGRSCDAKVDVWSSCCMMLHMLNGCHPWTQFFRGPLCLKIASEPPPVREIPPSCAPLTAQAIQEGLRKEPIHRVSAAELGGKVNRALQQVGGLKSPWRGEYKEPRHPPPNQANYHQTLHAQPRELSPRAPGPRPAEETTGRAPKLQPPLPPEPPEPNKSPPLTLSKEESGMWEPLPLSSLEPAPARNPSSPERKATVPEQELQQLEIELFLNSLSQPFSLEEQEQILSCLSIDSLSLSDDSEKNPSKASQSSRDTLSSGVHSWSSQAEARSSSWNMVLARGRPTDTPSYFNGVKVQIQSLNGEHLHIREFHRVKVGDIATGISSQIPAAAFSLVTKDGQPVRYDMEVPDSGIDLQCTLAPDGSFAWSWRVKHGQLENRP
# Target: T1, IL-2 receptor common gamma chain (cγc), …
protein,measurement,value
B1,in vitro kinase assay of anti NIK immunoprecipitates: NIK self- and IKK1-phosphorylation,A three fold increase in phosphorylation of NIK self- and IKK1-phosphorylation was observed in the presence of cγc
